Measurements reported in patent EP1410040B1.

Key:
[1] = target: full length STAT6 (human) (UniProt P42226); experiment: cell-based or functional assay
[2] = target: GST-STAT6 aa 677-847 protein (human); experiment: ELISA: 500 ng GST-STAT6 (677-847) coated, 250 ng His-NCoA-1 added, detected by Penta-His and anti-mouse-HRP; average of three experiments, s.d. 0,036
Sequence of GST-STAT6 aa 677-847 protein (human) (chain, as listed by the source limits assumed): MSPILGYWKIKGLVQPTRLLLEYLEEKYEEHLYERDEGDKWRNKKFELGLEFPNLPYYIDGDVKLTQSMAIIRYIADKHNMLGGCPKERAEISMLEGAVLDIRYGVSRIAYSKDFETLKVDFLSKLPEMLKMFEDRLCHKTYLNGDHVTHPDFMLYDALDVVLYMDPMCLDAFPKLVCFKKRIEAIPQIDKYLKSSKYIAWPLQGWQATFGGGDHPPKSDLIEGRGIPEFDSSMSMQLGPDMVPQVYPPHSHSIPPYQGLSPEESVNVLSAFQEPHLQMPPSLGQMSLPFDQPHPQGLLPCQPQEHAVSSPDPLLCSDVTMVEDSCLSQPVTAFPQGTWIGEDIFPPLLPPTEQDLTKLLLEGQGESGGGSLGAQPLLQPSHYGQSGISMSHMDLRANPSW

Sequence of UniProt P42226 (P42226 2-847): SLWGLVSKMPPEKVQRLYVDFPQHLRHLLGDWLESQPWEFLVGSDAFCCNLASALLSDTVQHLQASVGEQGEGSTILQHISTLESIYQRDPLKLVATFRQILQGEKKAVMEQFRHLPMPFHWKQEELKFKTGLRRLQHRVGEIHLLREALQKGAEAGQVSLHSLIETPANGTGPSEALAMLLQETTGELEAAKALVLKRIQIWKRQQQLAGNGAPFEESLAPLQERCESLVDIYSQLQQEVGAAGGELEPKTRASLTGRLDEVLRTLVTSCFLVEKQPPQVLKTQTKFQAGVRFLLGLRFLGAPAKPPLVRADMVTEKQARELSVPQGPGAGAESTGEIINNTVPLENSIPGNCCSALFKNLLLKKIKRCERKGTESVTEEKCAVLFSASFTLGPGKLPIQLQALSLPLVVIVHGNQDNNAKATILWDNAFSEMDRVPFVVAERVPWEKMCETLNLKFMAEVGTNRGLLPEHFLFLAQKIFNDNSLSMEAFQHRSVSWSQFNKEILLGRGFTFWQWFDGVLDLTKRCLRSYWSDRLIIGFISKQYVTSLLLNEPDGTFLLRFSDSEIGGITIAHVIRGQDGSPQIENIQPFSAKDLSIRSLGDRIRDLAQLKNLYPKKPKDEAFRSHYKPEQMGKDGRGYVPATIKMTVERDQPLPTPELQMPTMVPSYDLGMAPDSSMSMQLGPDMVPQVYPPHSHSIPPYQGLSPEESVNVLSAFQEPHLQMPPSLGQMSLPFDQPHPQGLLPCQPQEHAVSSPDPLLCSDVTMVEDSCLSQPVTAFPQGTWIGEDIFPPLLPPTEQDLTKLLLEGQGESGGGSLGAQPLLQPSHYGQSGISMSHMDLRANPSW

Row | IL-4 induced luciferase reporter gene expression (multimerized STAT6 response elements) in HepG2 cells [1] [fold] | Extinction 493 nm [2] | Molecule
1 | < 3 | – | NCoA-1 (nuclear coactivator 1), full length (from UniProt P70365 2-1447)
2 | – | 0.795 | His-tagged NCoA-1 aa 212-463 (protein) MHHHHHHSSGLVPRGSGMKETAAAKFERQHMDSPDLGTDDDDKAMGYLWIQEACQRYEVMQCFTVSQPKSIQEDGEDFQSCLICIARRLPRPPAITGVESFMTKQDTTGKIISIDTSSLRAAGRTGWEDLVRKCIYAFFQPQGREPSYARQLFQEVMTRGTASSPSYRFILNDGTMLSAHTKCKLCYPQSPDMQPFIMGIHIIDREHSGLSPQDDSNSGMSIPRINPSVNPGISPAHGVTRSSTLPPSNNNMVSARVNRQQSSDLNSSSSHTNSSNNQGNFGCSPGNQIVANVALNQGQAGSLEHHHHHH
